Results as given in patent US20240324599A1, “PESTICIDAL ENZYMES FOR USE ON NEMATODES, INSECTS, AND MOLLUSKS” (priority 2023, published 2024).

Assays:
[1] = test system: Fall armyworm (Spodoptera frugiperda); assay: Diet-surface overlay (DSO) bioassay; format: in vivo; settings: for Larva Stage I / Larva Stage II / Larva Stage III / Larva Stage IV / Dead Larva: number of individuals
In short: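 Enzyme treatments (0.1 mL) were spread and dried on artificial diet (no antibiotics), then one first-instar larva was placed per cell, 16 or 32 larvae per treatment. Trays were held at 27° C., 16:8 h light-dark, and developmental categories were counted after 7 days. Controls were filtered water and Btk spores at 1000 ppm.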

SCN nematodes = assay: Foliar spray on strawberry leaf segments: nematode death; format: in vivo, Heterodera glycines; settings: Table 40, 0.6% spray solution on strawberry leaf segments
Description: To determine whether a nematicidal enzyme can cause nematode death when sprayed as a foliar treatment, a trial was performed using chitinase 19F (SEQ ID NO: 182). The free enzyme was produced as described in Example 2. A SCN hatchery was set up as described in Example 2, except that no bleach sterilization step was performed. Six days later, the concentration of hatched nematodes was determined. Leaves from Quinault strawberry plants (Fragaria× ananassa) were cut into square sections and placed in the wells of a 24-well plate with the abaxial side up. Twenty-four wells were set up for each treatment. Spray solutions were created with water alone and water plus fermentation broth with chitinase 19F (SEQ ID NO: 182). For the base strain control and chitinase solutions, 0.094 mL of fermentation broth was added to 15 mL of water (0.6% solution) to model a field spray application of 8 fl oz. per acre. Treatments were added to a small spray bottle and each leaf segment was sprayed approximately 3 times. After the leaves had dried, approximately 100 nematodes were added to each leaf segment. […] The number of alive and dead nematodes were counted for each well, and the average percentage of dead nematodes were calculated for each treatment. […]

[2] = test system: soybean cyst nematode (SCN); assay: Soil application around soybean plants: SCN cysts per gram of root tissue; format: in vivo, Heterodera glycines; settings: Table 34; for Average cysts per g of root tissue: 0.5 mL/plant to soil, soybean 2830E3, 3 weeks, water control 139.8; for % Comparison to Control: water control = 100%, change in brackets
Description: To determine the efficacy of nematicidal enzymes applied to soil, a controlled environment trial was performed with 7-day old soybean plants (variety 2830E3) grown in pots. Enzymes were produced as described in Example 2. Prior to inoculation, 0.5 mL of neutral protease (SEQ ID NO: 127), esterase B (SEQ ID NO: 89), or chitinase 19F (SEQ ID NO: 182) free enzyme solution was applied to the soil around the base of each plant, or 0.5 mL of water was applied for the control (30 plants per treatment). Then, hatched SCN juveniles were applied to the soil around each plant as described in Example 2, and three weeks later, cysts per gram of root tissue was determined as described in Example 2. The data was analyzed as in Example 2 and appears in Tables 33 and 34.
To determine the efficacy of recombinant strains applied to soil, a controlled environment trial was performed as described in Example 18 above (Reduction of soybean cyst nematode reproduction by enzymes applied to soil), with the exception that a recombinant strain expressing neutral protease (SEQ ID NO: 127) was applied instead of a free enzyme solution. The recombinant strain was produced as in Example 3, and the treatment applied to soil as a whole cell broth.

[3] = test system: Btk resistant Diamondback moth; assay: Diet-surface overlay (DSO) bioassay; format: in vivo; settings: Table 47, Btk resistant
In short: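 Enzyme treatments (0.1 mL) were applied over the surface of antibiotic-free artificial diet, with one first-instar larva per cell and 16 or 32 larvae per treatment. After 7 days at 27° C under a 16:8 light-dark cycle, larvae were scored as dead, larval stage, pupa or adult. Water served as the negative control and 1000 ppm Btk spores as the positive control.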

[4] = test system: Diamondback moth (Plutella xylostella); assay: Diet-surface overlay (DSO) bioassay; format: in vivo
Description: Diet-surface overlay bioassays are conducted with artificial diet mixes without antibiotics in 1.5 cm^2 cell bioassay trays(s). Artificial diets are commercially available from Southland Products Inc. Diets were prepared by dispersing 0.5 mL of molten diet to each 1.5 cm^2 cell. After solidification, 0.1 mL enzyme treatments were dispersed on top of diet in each cell and the tray was gently rocked in an orbital shaker to spread the liquid uniformly over the diet surface. Trays were placed under clean airflow until the surface of each cell was uniformly dried. One or two 16-cell sections were used per treatment (the number in larvae treated was 16 or 32).
One healthy first instar larva was placed into each treatment cell, each 16-cell section was covered with a re-sealable lid and incubated at 27° C. and light-dark period of 16:8 hrs. After 7 days, and according to the species, the number of individuals in the following developmental categories was recorded.
Diamondback moth (Plutella xylostella): Dead Larva (lack of movement), Larva Stage I (≤50% relative size), Larva Stage II (100% relative size, full size), Early Pupa (light green color), Late Pupa (light-dark brown color), and Adult.
Negative/untreated controls were treated with filtered water and positive controls were treated with lethal doses of Bacillus thuringiensis subsp. Kurstaki (Btk) spores at 1000 ppm.

[5] = Table 49, esterases, number of individuals, n = 32

B1: Streptomyces coelicolor Chitinase F (Chi19F) (protein)
chain: ASCSSYHAWSADANYNTGDIVRYTDGKAYIAEHANPGYDPLISTWYWDPYACDGGSQTPVGNFVVSEAQFNQMFPGRNSFYTYSGLTAALSAYPGFANTGSDTTKKQEAAAFLANVSHETGGLVYIVEQNTANYPHYCDWNQPYGCPAGQAAYYGRGPIQLSWNFNYKAAGDALGIDLLGNPWLVQNDAAVAWKTGLWYWNTQSGPGTMTPHNAMVNGAGFGQTIRSINGSLECDGKNPAQVQSRVTKYQQFAQILGVSPGGNLYC
modifications: Chitinase F (Chi19F); Streptomyces coelicolor
Larva Stage I ([1]; Table 48, chitinases, n = 32): 4
Larva Stage II ([1]; Table 48, chitinases, n = 32): 14
Larva Stage III ([1]; Table 48, chitinases, n = 32): 5
Larva Stage IV ([1]; Table 48, chitinases, n = 32): 6
Dead Larva ([1]; Table 48, chitinases, n = 32, dose per treatment in mU/mL Diet): 3
Average percentage of dead nematodes at 0 hours (SCN nematodes; water only 4%): 3%
Average percentage of dead nematodes at 24 hours (SCN nematodes; water only 5%): 12%
Average cysts per g of root tissue [2]: 95.6 cysts per g of root tissue
% Comparison to Control [2]: 68% (−32%)
Dead Larva ([3]; individuals of n = 32 after 7 days, mU/mL diet: SEQ 182 3.7, SEQ 185 0.6, water 1): 2
Early Pupa ([3]; n = 32, doses as E97, water 0): 4
Larva Stage I ([3]; n = 32, doses as E97, water 0): 2
Larva Stage II ([3]; n = 32, doses as E97, water 0): 1
Adult ([3]; n = 32, doses as E97, water 7): 1
Late Pupa ([3]; n = 32, doses as E97, water 24): 22

B2: Bacillus subtilis Esterase (EstB without signal sequence) (protein, listed as Bacillus subtilis)
chain: ESVHNPVVLVHGISGASYNFFAIKNYLISQGWQSNKLYAIDFYDKTGNNLNNGPQLASYVDRVLKETGAKKVDIVAHSMGGANTLYYIKYLGGGNKIQNVVTLGGANGLVSSTALPGTDPNQKILYTSIYSLNDQIVINSLSRLQGARNIQLYGIGHIGLLSNSQVNGYIKEGLNGGGLNTN
modifications: Esterase (EstB H191 without signal sequence)
Larva Stage I ([1]; Table 50, esterases, n=32): 3
Larva Stage II ([1]; Table 50, esterases, n=32): 4
Larva Stage III ([1]; Table 50, esterases, n=32): 14
Larva Stage IV ([1]; Table 50, esterases, n=32): 10
Dead Larva ([1]; Table 50, esterases, n=32, dose per treatment in U/mL Diet): 1
individuals with delayed development ([1]; text to Table 50): 67%
Average cysts per g of root tissue [2]: 117.3 cysts per g of root tissue
% Comparison to Control [2]: 84% (−16%)
Adult [4, 5]: 0
Early Pupa [4, 5]: 4
Larva Stage I [4, 5]: 3
Larva Stage II [4, 5]: 8
Late Pupa [4, 5]: 17
Dead Larva ([4]; Table 49, esterases, number of individuals, n = 32, dose per treatment in U/mL Diet): 0
individuals at larva stage ([4]; text to Table 49): 34%
individuals with delayed larva-pupa development ([4]; text to Table 49): 47%
